The source of these data is IntAct's records for PubMed 29039417.

B1: BBSome complex member BBS5 (Homo sapiens), Q8N3I7 (parent)
chain: MSVLDALWEDRDVRFDLSAQQMKTRPGEVLIDCLDSIEDTKGNNGDRGRLLVTNLRILWHSLALSRVNVSVGYNCILNITTRTANSKLRGQTEALYILTKCNSTRFEFIFTNLVPGSPRLFTSVMAVHRAYETSKMYRDFKLRSALIQNKQLRLLPQEHVYDKINGVWNLSSDQGNLGTFFITNVRIVWHANMNDSFNVSIPYLQIRSIKIRDSKFGLALVIESSQQSGGYVLGFKIDPVEKLQESVKEINSLHKVYSASPIFGVDYEMEEKPQPLEALTVEQIQDDVEIDSDGHTDAFVAYFADGNKQQDREPVFSEELGLAIEKLKDGFTLQGLWEVMS
partner: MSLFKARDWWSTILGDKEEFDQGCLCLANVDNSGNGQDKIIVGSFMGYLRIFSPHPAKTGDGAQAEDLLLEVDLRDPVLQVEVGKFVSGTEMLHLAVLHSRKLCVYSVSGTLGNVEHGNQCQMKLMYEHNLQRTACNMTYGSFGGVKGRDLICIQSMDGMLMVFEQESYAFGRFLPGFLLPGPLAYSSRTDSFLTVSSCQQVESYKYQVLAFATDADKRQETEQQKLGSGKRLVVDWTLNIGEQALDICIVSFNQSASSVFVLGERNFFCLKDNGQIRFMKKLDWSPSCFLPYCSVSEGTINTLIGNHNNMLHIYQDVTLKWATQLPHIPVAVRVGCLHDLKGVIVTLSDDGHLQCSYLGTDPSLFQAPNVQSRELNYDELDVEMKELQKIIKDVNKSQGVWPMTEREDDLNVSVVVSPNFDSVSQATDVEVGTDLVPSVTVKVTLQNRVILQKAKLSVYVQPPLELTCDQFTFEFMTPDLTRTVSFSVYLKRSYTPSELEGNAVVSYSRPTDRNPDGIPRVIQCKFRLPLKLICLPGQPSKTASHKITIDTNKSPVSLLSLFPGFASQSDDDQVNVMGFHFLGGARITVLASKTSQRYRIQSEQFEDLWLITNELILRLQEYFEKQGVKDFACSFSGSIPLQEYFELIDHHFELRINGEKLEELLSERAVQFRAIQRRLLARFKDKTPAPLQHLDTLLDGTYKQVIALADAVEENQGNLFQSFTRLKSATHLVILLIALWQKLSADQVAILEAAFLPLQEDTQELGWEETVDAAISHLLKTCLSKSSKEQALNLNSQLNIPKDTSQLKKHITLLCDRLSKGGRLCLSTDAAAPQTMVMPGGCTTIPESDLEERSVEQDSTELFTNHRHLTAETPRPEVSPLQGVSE

In the assay the parent is B1. The following applies: with pthb1_human BBS9, Q3SYG4.
For P275K, the “effect of a mutation on the interaction” value is given as “with no effect”.
Consider P275A, for which the “effect of a mutation on the interaction” value is given as “with no effect”.
As to P275E, the “effect of a mutation on the interaction” value is listed as “with no effect”.
Turning to L320K, the “effect of a mutation on the interaction” value is “with no effect”.
L320A: the “effect of a mutation on the interaction” value is on record as “with no effect”.
Regarding L320E, the “effect of a mutation on the interaction” value is reported as “with no effect”.
As for Q283A, the entry is “with no effect”; as for Q283K, “with no effect”.
Under Q283E stands “with no effect”; under V300A, “with no effect”; under V300E, “with no effect”.
As to V300K, the “effect of a mutation on the interaction” value was “with no effect”.
On to Y302K, for which the “effect of a mutation on the interaction” value is “disrupting interaction strength”.
Y302A: the “effect of a mutation on the interaction” value is “with no effect”.
In the case of Y302E, the “effect of a mutation on the interaction” value is reported as “with no effect”.
As for E271K, the entry is “with no effect”; as for E271A, “with no effect”; as for E277A, “with no effect”.
For E277K, the “effect of a mutation on the interaction” value is “with no effect”.
As for V265K, the “effect of a mutation on the interaction” value is recorded as “with no effect”.
Under V265A stands “with no effect”; under V265E, “with no effect”; under I284E, “with no effect”.
As to I284A, the “effect of a mutation on the interaction” value is given as “with no effect”.
On to I284K, for which the “effect of a mutation on the interaction” value is “with no effect”.
As to E313A, the “effect of a mutation on the interaction” value is “with no effect”.
Regarding E313K, the “effect of a mutation on the interaction” value is “with no effect”.
As for N307E, the entry is “with no effect”; as for N307K, “with no effect”.
Consider N307A, for which the “effect of a mutation on the interaction” value is “with no effect”.
For the variant Q274A, the “effect of a mutation on the interaction” value is reported as “with no effect”.
Consider Q274E, for which the “effect of a mutation on the interaction” value is listed as “with no effect”.
Regarding Q274K, the “effect of a mutation on the interaction” value is given as “with no effect”.
Regarding A304K, the “effect of a mutation on the interaction” value is “with no effect”.
For the variant A304E, the “effect of a mutation on the interaction” value is reported as “with no effect”.
In the case of I290A, the “effect of a mutation on the interaction” value is listed as “with no effect”.
Turning to I290K, the “effect of a mutation on the interaction” value is on record as “with no effect”.
For I290E, the “effect of a mutation on the interaction” value is “with no effect”.
On to V288A, for which the “effect of a mutation on the interaction” value is on record as “with no effect”.
Regarding V288K, the “effect of a mutation on the interaction” value was “with no effect”.
As to V288E, the “effect of a mutation on the interaction” value is “with no effect”.
As for V281E, the entry is “with no effect”; as for V281A, “with no effect”.
Consider V281K, for which the “effect of a mutation on the interaction” value is “with no effect”.
On to I262A, for which the “effect of a mutation on the interaction” value was “with no effect”.
For I262K, the “effect of a mutation on the interaction” value is listed as “with no effect”.
Regarding I262E, the “effect of a mutation on the interaction” value is “with no effect”.
Under G294K stands “with no effect”; under G294A, “with no effect”.
As for G294E, the entry is “with no effect”.
Consider D287E, for which the “effect of a mutation on the interaction” value is “with no effect”.
Under D287K stands “with no effect”; under D287A, “with no effect”; under E270K, “with no effect”.
As for E270A, the entry is “with no effect”; as for T280A, “with no effect”.
T280E: the “effect of a mutation on the interaction” value is reported as “with no effect”.
As to T280K, the “effect of a mutation on the interaction” value was “with no effect”.
As for G321A, the entry is “with no effect”; as for G321E, “with no effect”.
Regarding G321K, the “effect of a mutation on the interaction” value is “with no effect”.
For the variant T296K, the “effect of a mutation on the interaction” value was “with no effect”.
In the case of T296A, the “effect of a mutation on the interaction” value is reported as “with no effect”.
As for T296E, the “effect of a mutation on the interaction” value is on record as “with no effect”.
As for P273K, the “effect of a mutation on the interaction” value is recorded as “with no effect”.
With P273A, the “effect of a mutation on the interaction” value was “with no effect”.
With P273E, the “effect of a mutation on the interaction” value is reported as “with no effect”.
Under E282K stands “with no effect”; under E282A, “with no effect”; under Q309A, “with no effect”.
In the case of Q309E, the “effect of a mutation on the interaction” value was “with no effect”.
Consider Q309K, for which the “effect of a mutation on the interaction” value is recorded as “disrupting interaction strength”.
As for D297K, the entry is “with no effect”.
In the case of D297A, the “effect of a mutation on the interaction” value was “with no effect”.
D297E: the “effect of a mutation on the interaction” value is “with no effect”.
Take H295A: the “effect of a mutation on the interaction” value is “with no effect”.
Consider H295K, for which the “effect of a mutation on the interaction” value is “with no effect”.
As for H295E, the entry is “with no effect”; as for Q310K, “with no effect”.
With Q310E, the “effect of a mutation on the interaction” value is “with no effect”.
Under Q310A stands “with no effect”; under K308A, “with no effect”; under K308E, “with no effect”.
Take D311K: the “effect of a mutation on the interaction” value is recorded as “with no effect”.
As for D311A, the “effect of a mutation on the interaction” value is “with no effect”.
As for D311E, the entry is “with no effect”; as for L279A, “with no effect”; as for L279E, “with no effect”.
In the case of L279K, the “effect of a mutation on the interaction” value is “with no effect”.
Take D266A: the “effect of a mutation on the interaction” value is reported as “with no effect”.
As for D266K, the entry is “with no effect”; as for D266E, “with no effect”.
